In patent US20250197482A1 (UNITED STATES OF AMERICA AS REPRESENTED BY THE SECRETARY …, published 2025):
Positions count from the first letter of the chain named.

B1: CAP256V2LS-VRC01-6 (bispecific antibody)
heavy chain: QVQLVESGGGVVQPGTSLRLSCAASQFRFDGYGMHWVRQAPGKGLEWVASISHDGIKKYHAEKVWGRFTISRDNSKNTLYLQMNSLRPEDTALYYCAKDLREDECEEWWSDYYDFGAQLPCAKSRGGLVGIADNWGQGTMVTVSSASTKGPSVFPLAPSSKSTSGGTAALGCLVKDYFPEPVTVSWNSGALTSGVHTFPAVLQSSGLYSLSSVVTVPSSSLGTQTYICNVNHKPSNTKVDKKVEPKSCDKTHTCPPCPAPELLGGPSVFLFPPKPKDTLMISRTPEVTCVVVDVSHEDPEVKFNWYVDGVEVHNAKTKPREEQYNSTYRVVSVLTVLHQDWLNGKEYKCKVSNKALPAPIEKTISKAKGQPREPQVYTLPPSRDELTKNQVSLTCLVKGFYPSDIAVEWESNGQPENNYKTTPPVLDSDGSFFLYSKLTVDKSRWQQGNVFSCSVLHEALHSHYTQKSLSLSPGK
light chain (VRC01 scFv, linker, CAP256V2LS LC): QVQLVQSGGQMKKPGESMRISCRASGYEFIDCTLNWIRLAPGKRPEWMGWLKPRGGAVNYARPLQGRVTMTRDVYSDTAFLELRSLTVDDTAVYFCTRGKNCDYNWDFEHWGRGTPVIVSSGGGGSGGGGSGGGGSLTQSPGTLSLSPGETAIISCRTSQYGSLAWYQQRPGQAPRLVIYSGSTRAAGIPDRFSGSRWGPDYNLTISNLESGDFGVYYCQQYEFFGQGTKVQVDKTHTDKTHTDKTHTQSVLTQPPSVSAAPGQKVTISCSGNTSNIGNNFVSWYQQRPGRAPQLLIYETDKRPSGIPDRFSASKSGTSGTLAITGLQTGDEADYYCATWAASLSSARVFGTGTQVIVLGQPKVNPTVTLFPPSSEELQANKATLVCLISDFYPGAVTVAWKADSSPVKAGVETTTPSKQSNNKYAASSYLSLTPEQWKSHRSYSCQVTHEGSTVEKTVAPTECS
B2: CAP256V2LS-10E8-6 (bispecific antibody)
heavy chain: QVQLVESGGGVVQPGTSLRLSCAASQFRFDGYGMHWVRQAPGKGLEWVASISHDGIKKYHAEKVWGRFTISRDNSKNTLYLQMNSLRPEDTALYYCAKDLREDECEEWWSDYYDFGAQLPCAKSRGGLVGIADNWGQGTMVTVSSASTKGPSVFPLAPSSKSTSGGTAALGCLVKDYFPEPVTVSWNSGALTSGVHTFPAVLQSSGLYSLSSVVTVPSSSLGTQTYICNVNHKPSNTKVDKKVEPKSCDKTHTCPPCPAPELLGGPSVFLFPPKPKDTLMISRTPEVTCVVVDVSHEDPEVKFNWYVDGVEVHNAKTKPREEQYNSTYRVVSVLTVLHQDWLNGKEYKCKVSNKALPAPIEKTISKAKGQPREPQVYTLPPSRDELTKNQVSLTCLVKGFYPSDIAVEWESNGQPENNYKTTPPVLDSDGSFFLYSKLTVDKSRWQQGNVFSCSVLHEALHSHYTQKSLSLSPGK
light chain (10E8v4 scFv, linker, CAP256V2LS LC): EVRLVESGGGLVKPGGSLRLSCSASGFDFDNAWMTWVRQPPGKGLEWVGRITGPGEGWSVDYAESVKGRFTISRDNTKNTLYLEMNNVRTEDTGYYFCARTGKYYDFWSGYPPGEEYFQDWGQGTLVIVSSGGGGSGGGGSGGGGSSELTQDPAVSVALKQTVTITCRGDSLRSHYASWYQKKPGQAPVLLFYGKNNRPSGIPDRFSGSASGNRASLTITGAQAEDEADYYCSSRDKSGSRLSVFGGGTKLTVDKTHTGDKTHTGDKTHTQSVLTQPPSVSAAPGQKVTISCSGNTSNIGNNFVSWYQQRPGRAPQLLIYETDKRPSGIPDRFSASKSGTSGTLAITGLQTGDEADYYCATWAASLSSARVFGTGTQVIVLGQPKVNPTVTLFPPSSEELQANKATLVCLISDFYPGAVTVAWKADSSPVKAGVETTTPSKQSNNKYAASSYLSLTPEQWKSHRSYSCQVTHEGSTVEKTVAPTECS
B3: CAP256V2LS-VRC01-1 (bispecific antibody)
heavy chain: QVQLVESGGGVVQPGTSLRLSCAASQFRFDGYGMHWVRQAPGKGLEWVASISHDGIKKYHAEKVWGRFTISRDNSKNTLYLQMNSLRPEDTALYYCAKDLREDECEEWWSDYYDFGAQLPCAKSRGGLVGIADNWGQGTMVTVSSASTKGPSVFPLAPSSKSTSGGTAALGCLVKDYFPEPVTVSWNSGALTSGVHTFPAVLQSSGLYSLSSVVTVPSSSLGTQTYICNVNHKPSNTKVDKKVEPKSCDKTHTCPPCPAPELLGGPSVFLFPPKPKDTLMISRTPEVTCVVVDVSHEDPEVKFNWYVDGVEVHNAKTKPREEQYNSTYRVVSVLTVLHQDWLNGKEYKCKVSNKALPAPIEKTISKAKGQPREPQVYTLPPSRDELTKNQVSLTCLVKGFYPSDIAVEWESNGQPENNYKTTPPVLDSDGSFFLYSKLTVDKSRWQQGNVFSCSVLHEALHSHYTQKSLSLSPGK
light chain (VRC01 scFv, linker, CAP256V2LS LC): QVQLVQSGGQMKKPGESMRISCRASGYEFIDCTLNWIRLAPGKRPEWMGWLKPRGGAVNYARPLQGRVTMTRDVYSDTAFLELRSLTVDDTAVYFCTRGKNCDYNWDFEHWGRGTPVIVSSGGGGSGGGGSGGGGSLTQSPGTLSLSPGETAIISCRTSQYGSLAWYQQRPGQAPRLVIYSGSTRAAGIPDRFSGSRWGPDYNLTISNLESGDFGVYYCQQYEFFGQGTKVQVGGSGGQSVLTQPPSVSAAPGQKVTISCSGNTSNIGNNFVSWYQQRPGRAPQLLIYETDKRPSGIPDRFSASKSGTSGTLAITGLQTGDEADYYCATWAASLSSARVFGTGTQVIVLGQPKVNPTVTLFPPSSEELQANKATLVCLISDFYPGAVTVAWKADSSPVKAGVETTTPSKQSNNKYAASSYLSLTPEQWKSHRSYSCQVTHEGSTVEKTVAPTECS
B4: CAP256V2LS-VRC01-4 (bispecific antibody)
heavy chain: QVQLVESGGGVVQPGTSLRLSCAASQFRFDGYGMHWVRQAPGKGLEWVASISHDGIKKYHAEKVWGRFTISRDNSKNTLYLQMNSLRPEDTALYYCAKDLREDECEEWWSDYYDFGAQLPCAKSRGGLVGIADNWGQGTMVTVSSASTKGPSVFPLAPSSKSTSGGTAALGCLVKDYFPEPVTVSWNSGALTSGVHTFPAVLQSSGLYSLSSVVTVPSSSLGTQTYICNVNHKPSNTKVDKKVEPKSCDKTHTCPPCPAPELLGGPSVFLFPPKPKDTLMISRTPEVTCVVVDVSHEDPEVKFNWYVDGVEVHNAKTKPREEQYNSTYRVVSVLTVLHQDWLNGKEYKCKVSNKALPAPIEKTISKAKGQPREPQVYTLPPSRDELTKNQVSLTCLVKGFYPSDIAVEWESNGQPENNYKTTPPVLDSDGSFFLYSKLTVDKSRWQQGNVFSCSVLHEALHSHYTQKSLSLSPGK
light chain (VRC01 scFv, linker, CAP256V2LS LC): B3 light chain (VRC01 scFv, linker, CAP256V2LS LC) with G234D, G235K, S236T, G237H, G238T
B5: CAP256V2LS-VRC01-3 (bispecific antibody)
heavy chain: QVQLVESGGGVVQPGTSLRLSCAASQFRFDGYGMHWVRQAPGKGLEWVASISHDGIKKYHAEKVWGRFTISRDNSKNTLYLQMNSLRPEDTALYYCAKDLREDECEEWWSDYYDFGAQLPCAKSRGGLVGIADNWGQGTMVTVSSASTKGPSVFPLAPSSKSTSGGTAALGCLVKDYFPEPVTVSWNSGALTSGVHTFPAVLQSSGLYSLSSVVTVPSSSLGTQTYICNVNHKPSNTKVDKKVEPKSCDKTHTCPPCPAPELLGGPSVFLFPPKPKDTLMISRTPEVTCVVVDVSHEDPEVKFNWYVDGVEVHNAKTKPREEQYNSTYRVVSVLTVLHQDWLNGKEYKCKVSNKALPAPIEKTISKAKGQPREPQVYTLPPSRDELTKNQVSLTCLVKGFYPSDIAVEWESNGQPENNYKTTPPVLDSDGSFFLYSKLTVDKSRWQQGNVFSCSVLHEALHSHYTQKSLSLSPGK
light chain (VRC01 scFv, linker, CAP256V2LS LC): QVQLVQSGGQMKKPGESMRISCRASGYEFIDCTLNWIRLAPGKRPEWMGWLKPRGGAVNYARPLQGRVTMTRDVYSDTAFLELRSLTVDDTAVYFCTRGKNCDYNWDFEHWGRGTPVIVSSGGGGSGGGGSGGGGSLTQSPGTLSLSPGETAIISCRTSQYGSLAWYQQRPGQAPRLVIYSGSTRAAGIPDRFSGSRWGPDYNLTISNLESGDFGVYYCQQYEFFGQGTKVQVGGSGGGGSGGGGSGGQSVLTQPPSVSAAPGQKVTISCSGNTSNIGNNFVSWYQQRPGRAPQLLIYETDKRPSGIPDRFSASKSGTSGTLAITGLQTGDEADYYCATWAASLSSARVFGTGTQVIVLGQPKVNPTVTLFPPSSEELQANKATLVCLISDFYPGAVTVAWKADSSPVKAGVETTTPSKQSNNKYAASSYLSLTPEQWKSHRSYSCQVTHEGSTVEKTVAPTECS
B6: CAP256V2LS-J3-1 (bispecific antibody)
heavy chain: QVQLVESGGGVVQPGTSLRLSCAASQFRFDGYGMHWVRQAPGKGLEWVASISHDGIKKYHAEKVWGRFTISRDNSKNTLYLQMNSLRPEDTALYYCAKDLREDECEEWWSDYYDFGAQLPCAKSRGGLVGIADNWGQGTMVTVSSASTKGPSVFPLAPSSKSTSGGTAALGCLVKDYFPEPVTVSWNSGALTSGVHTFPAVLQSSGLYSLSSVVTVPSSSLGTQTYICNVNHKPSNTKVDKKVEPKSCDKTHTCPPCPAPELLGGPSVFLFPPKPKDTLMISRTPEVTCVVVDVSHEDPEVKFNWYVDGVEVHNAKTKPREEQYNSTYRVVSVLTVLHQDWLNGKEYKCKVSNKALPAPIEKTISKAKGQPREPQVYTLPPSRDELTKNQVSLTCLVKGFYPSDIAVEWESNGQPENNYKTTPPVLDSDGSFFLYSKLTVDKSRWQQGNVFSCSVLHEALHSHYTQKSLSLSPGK
light chain (J3 VHH, linker, CAP256V2LS LC): EVQLVESGGGLVQAGGFLRLSCELRGSIFNQYAMAWFRQAPGKEREFVAGMGAVPHYGEFVKGRFTISRDNAKSTVYLQMSSLKPEDTAIYFCARSKSTYISYNSNGYDYWGRGTQVTVSSGGSGGQSVLTQPPSVSAAPGQKVTISCSGNTSNIGNNFVSWYQQRPGRAPQLLIYETDKRPSGIPDRFSASKSGTSGTLAITGLQTGDEADYYCATWAASLSSARVFGTGTQVIVLGQPKVNPTVTLFPPSSEELQANKATLVCLISDFYPGAVTVAWKADSSPVKAGVETTTPSKQSNNKYAASSYLSLTPEQWKSHRSYSCQVTHEGSTVEKTVAPTECS
B7: CAP256V2LS-J3-4 (bispecific antibody)
heavy chain: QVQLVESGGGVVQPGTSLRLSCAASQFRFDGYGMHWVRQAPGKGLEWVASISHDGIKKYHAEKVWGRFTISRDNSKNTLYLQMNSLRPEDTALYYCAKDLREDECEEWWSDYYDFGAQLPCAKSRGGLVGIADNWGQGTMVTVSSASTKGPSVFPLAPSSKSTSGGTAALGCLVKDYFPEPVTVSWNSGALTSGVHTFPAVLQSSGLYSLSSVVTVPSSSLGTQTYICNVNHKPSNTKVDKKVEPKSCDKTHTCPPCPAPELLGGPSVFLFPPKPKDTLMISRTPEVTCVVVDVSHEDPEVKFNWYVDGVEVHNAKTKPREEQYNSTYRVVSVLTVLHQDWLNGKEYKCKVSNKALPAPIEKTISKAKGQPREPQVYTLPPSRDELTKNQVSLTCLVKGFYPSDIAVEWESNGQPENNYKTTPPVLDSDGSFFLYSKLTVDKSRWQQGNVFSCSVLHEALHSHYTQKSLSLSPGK
light chain (J3 VHH, linker, CAP256V2LS LC): B6 light chain (J3 VHH, linker, CAP256V2LS LC) with G122D, G123K, S124T, G125H, G126T
B8: CAP256V2LS-VRC01-2 (bispecific antibody)
heavy chain: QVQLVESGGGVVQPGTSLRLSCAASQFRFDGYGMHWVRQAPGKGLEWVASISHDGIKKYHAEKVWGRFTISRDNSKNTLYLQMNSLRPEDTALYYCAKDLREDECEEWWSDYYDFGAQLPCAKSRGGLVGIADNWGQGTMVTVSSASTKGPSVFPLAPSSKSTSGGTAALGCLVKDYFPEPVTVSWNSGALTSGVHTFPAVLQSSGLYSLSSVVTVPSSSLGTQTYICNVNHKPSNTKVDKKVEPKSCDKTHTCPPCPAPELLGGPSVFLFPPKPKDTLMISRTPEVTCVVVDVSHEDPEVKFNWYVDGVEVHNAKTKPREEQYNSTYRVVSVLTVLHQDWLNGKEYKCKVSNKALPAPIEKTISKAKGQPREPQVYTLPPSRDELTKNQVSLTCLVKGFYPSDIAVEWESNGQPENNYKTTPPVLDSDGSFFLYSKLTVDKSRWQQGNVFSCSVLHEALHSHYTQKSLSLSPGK
light chain (VRC01 scFv, linker, CAP256V2LS LC): QVQLVQSGGQMKKPGESMRISCRASGYEFIDCTLNWIRLAPGKRPEWMGWLKPRGGAVNYARPLQGRVTMTRDVYSDTAFLELRSLTVDDTAVYFCTRGKNCDYNWDFEHWGRGTPVIVSSGGGGSGGGGSGGGGSLTQSPGTLSLSPGETAIISCRTSQYGSLAWYQQRPGQAPRLVIYSGSTRAAGIPDRFSGSRWGPDYNLTISNLESGDFGVYYCQQYEFFGQGTKVQVGGSGGGGSGGQSVLTQPPSVSAAPGQKVTISCSGNTSNIGNNFVSWYQQRPGRAPQLLIYETDKRPSGIPDRFSASKSGTSGTLAITGLQTGDEADYYCATWAASLSSARVFGTGTQVIVLGQPKVNPTVTLFPPSSEELQANKATLVCLISDFYPGAVTVAWKADSSPVKAGVETTTPSKQSNNKYAASSYLSLTPEQWKSHRSYSCQVTHEGSTVEKTVAPTECS
B9: CAP256V2LS-VRC01-5 (bispecific antibody)
heavy chain: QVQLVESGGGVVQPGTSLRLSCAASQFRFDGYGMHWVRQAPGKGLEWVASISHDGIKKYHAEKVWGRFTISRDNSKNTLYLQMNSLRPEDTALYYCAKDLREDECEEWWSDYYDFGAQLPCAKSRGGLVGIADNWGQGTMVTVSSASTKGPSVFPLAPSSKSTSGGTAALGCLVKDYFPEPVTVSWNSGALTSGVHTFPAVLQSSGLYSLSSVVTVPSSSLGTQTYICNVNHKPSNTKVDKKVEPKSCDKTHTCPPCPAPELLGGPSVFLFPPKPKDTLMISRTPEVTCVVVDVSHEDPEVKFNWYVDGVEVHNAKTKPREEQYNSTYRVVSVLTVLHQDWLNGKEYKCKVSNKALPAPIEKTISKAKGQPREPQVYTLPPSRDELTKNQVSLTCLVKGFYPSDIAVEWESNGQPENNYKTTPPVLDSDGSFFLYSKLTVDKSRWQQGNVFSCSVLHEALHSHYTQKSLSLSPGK
light chain (VRC01 scFv, linker, CAP256V2LS LC): B8 light chain (VRC01 scFv, linker, CAP256V2LS LC) with G234D, G235K, S236T, G237H, G238T, G239D, G240K, S241T, G242H, G243T
B10: CAP256V2LS-10E8-5 (bispecific antibody)
heavy chain: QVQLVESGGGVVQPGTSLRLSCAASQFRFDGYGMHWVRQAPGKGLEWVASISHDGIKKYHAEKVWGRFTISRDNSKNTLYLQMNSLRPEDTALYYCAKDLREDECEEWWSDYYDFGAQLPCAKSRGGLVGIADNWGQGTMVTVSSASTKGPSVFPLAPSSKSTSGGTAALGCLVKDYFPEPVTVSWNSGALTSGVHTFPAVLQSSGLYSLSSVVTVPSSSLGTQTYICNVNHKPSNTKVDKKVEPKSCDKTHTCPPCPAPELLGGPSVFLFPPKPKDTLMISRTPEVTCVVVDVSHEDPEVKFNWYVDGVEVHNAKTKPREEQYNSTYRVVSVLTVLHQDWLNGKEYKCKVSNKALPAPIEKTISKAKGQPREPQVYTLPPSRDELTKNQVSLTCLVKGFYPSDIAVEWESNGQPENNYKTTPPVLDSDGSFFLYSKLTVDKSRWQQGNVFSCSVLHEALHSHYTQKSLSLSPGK
light chain (10E8v4 scFv, linker, CAP256V2LS LC): EVRLVESGGGLVKPGGSLRLSCSASGFDFDNAWMTWVRQPPGKGLEWVGRITGPGEGWSVDYAESVKGRFTISRDNTKNTLYLEMNNVRTEDTGYYFCARTGKYYDFWSGYPPGEEYFQDWGQGTLVIVSSGGGGSGGGGSGGGGSSELTQDPAVSVALKQTVTITCRGDSLRSHYASWYQKKPGQAPVLLFYGKNNRPSGIPDRFSGSASGNRASLTITGAQAEDEADYYCSSRDKSGSRLSVFGGGTKLTVDKTHTGDKTHTQSVLTQPPSVSAAPGQKVTISCSGNTSNIGNNFVSWYQQRPGRAPQLLIYETDKRPSGIPDRFSASKSGTSGTLAITGLQTGDEADYYCATWAASLSSARVFGTGTQVIVLGQPKVNPTVTLFPPSSEELQANKATLVCLISDFYPGAVTVAWKADSSPVKAGVETTTPSKQSNNKYAASSYLSLTPEQWKSHRSYSCQVTHEGSTVEKTVAPTECS
B11: CAP256V2LS-10E8-4 (bispecific antibody)
heavy chain: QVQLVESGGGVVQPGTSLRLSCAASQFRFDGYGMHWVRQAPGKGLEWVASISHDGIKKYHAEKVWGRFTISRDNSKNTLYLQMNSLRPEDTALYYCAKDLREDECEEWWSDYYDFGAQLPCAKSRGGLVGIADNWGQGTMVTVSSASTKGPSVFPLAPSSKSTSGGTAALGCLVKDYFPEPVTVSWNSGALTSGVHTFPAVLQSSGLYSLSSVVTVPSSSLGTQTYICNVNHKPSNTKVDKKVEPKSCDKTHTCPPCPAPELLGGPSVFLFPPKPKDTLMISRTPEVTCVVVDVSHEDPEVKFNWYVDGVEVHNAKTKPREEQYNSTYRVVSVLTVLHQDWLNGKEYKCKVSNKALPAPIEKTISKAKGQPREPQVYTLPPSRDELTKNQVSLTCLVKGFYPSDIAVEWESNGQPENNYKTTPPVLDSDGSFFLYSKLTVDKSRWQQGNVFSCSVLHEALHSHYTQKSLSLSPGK
light chain (10E8v4 scFv, linker, CAP256V2LS LC): EVRLVESGGGLVKPGGSLRLSCSASGFDFDNAWMTWVRQPPGKGLEWVGRITGPGEGWSVDYAESVKGRFTISRDNTKNTLYLEMNNVRTEDTGYYFCARTGKYYDFWSGYPPGEEYFQDWGQGTLVIVSSGGGGSGGGGSGGGGSSELTQDPAVSVALKQTVTITCRGDSLRSHYASWYQKKPGQAPVLLFYGKNNRPSGIPDRFSGSASGNRASLTITGAQAEDEADYYCSSRDKSGSRLSVFGGGTKLTVDKTHTQSVLTQPPSVSAAPGQKVTISCSGNTSNIGNNFVSWYQQRPGRAPQLLIYETDKRPSGIPDRFSASKSGTSGTLAITGLQTGDEADYYCATWAASLSSARVFGTGTQVIVLGQPKVNPTVTLFPPSSEELQANKATLVCLISDFYPGAVTVAWKADSSPVKAGVETTTPSKQSNNKYAASSYLSLTPEQWKSHRSYSCQVTHEGSTVEKTVAPTECS
B12: CAP256V2LS (antibody, V domains shown)
VH: QVQLVESGGGVVQPGTSLRLSCAASQFRFDGYGMHWVRQAPGKGLEWVASISHDGIKKYHAEKVWGRFTISRDNSKNTLYLQMNSLRPEDTALYYCAKDLREDECEEWWSDYYDFGAQLPCAKSRGGLVGIADNWGQGTMVTVSS
VL: QSVLTQPPSVSAAPGQKVTISCSGNTSNIGNNFVSWYQQRPGRAPQLLIYETDKRPSGIPDRFSASKSGTSGTLAITGLQTGDEADYYCATWAASLSSARVFGTGTQVIVLG

The binders below were run against CAP256 wk34c80 (HIV-1) (assay: cell-based or functional assay).

Going from B1 to B2, the “% neutralization, single point, Env-pseudotyped virus on TZM-bl” value (from here on “% neutralization, single point”) rises from 98% to 100%.

First: B3
Second: B4
The “% neutralization, single point” value of the first is lower: 77% for the first, 98% for the second.

Compared with B5, B6 is lower in “% neutralization, single point” value: 99% for the first, 20% for the second.

Compared with B7, B8 is lower in “% neutralization, single point” value: 100% for the first, 41% for the second.

Compared with B9, B10 is higher in “% neutralization, single point” value: 67% for the first, 100% for the second.

Going from B11 to B12, the “% neutralization, single point” value rises from 23% to 100%.

What follows are binders tested against HIV-1 Env of strain WITO.33 (Env-pseudotyped virus) (HIV-1) (assay: cell-based or functional assay).

B1 and B2 are the same in “% neutralization, single point” value: 0% for the first, 0% for the second.

B3 and B4 are the same in “% neutralization, single point” value: 0% for the first, 0% for the second.

Compared with B5, B6 is higher in “% neutralization, single point” value: 0% for the first, 3% for the second.

Compared with B7, B8 is lower in “% neutralization, single point” value: 86% for the first, 38% for the second.

Compared with B9, B10 is higher in “% neutralization, single point” value: 0% for the first, 18% for the second.

Compared with B11, B12 is lower in “% neutralization, single point” value: 10% for the first, 0% for the second.
